The data set has as its target APOBEC3G D316R/D317R D316R,D317R (Homo sapiens) (UniProt Q9HC16). The settings on record: deamination; middle and 3' C deaminated at about same rate.

Chain of APOBEC3G D316R/D317R D316R,D317R (Homo sapiens) (Q9HC16 whole entry D316R/D317R): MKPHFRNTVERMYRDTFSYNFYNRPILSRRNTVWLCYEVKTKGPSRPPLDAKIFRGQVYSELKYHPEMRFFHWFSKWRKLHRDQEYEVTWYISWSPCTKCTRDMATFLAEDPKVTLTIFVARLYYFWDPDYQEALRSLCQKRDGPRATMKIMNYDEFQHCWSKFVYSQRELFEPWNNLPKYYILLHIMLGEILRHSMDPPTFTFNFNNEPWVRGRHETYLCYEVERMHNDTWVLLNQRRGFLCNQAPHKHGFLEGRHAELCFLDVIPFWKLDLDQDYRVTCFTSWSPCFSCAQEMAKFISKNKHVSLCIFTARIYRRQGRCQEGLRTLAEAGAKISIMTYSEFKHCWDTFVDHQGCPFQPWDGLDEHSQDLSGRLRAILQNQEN

Regarding “FdT ssDNA deamination substrate with CCC motif”, the activity was 1.6 fold of wt.
